Results: the supplement of paper PMC7877785
± gives the uncertainty stated by the source.

Test: self-splicing fitness, log relative to wild type (ln ratio); higher = more splicing; Tetrahymena group I intron in knt gene, E. coli kanamycin selection, DiMSum; sequences stand for … in CUCUCU…GGAGGGAAAAGUUAUCAGGCAUGCACCUGGUAGCUAGUCUUUAAACCAAUAGAUUGCAUCGGUUUAAAAGGCAAGACCGUCAAAUUGCGGGAAAGGGGUCAACAGCCGUUCAGUACCAAGUCUCAGGGGAAACUUUGAGAUGGCCUUGCAAAGGGUAUGGUAAUAAGCUGACGGACAUGGUCCUAACCACGCAGCCAAGUCCUAAGUCAACAGAUCUUCUGUUGAUAUGGAUGCAGUUCACAGACUAAAUGUCGGUCGGGGAAGAUGUAUUCUUCUCAUAAGAUAUAGUCGGACCUCUCCUUAAUGGGAGCUAGCGGAUGAAGUGAUGCAACACUGGAGCCGCUGGGAACUAAUUUGUAUGCGAAAGUAUAUUGAUUAGUUUUGGAGUACUCGUGGUCG
In short: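 Pooled colonies went to amplicon sequencing on an Illumina HiSeq 2500 after six replicate transformations. The plates were LB agar with 100 μg/mL carbenicillin, 50 μM IPTG and 0.2% rhamnose, with or without 25 μg/mL kanamycin, incubated overnight at 37°C or 30°C. The E. coli BL21(DE3) library had all eight P1ex-region intron nucleotides randomised, the intron placed in the knt kanamycin-resistance gene on pET-22b(+). DiMSum fitness is the error-weighted combination of replicate fold changes, kanamycin against none, normalised to wild type.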

Sequence | self-splicing fitness (ln) (30 °C) | self-splicing fitness (ln) (37 °C)
AGCUAGCAAUAUUACGUGCA | -0.188 ± 0.069 | 0.247 ± 0.096
GCGGAGCAAUAUUACGGUGU | -3.36 ± 0.23 | -3.11 ± 0.35
UCGCAGCAAUAUUACGUAGG | -0.74 ± 0.068 | -0.377 ± 0.086
CAGUAGCAAUAUUACGGGCC | -2.57 ± 0.31 | -2.19 ± 0.3
UCAGAGCAAUAUUACGACAU | -4.002 ± 0.035 | -2.6 ± 0.045
CGCAAGCAAUAUUACGAGUU | -3.26 ± 0.13 | -1.45 ± 0.1
CCGUAGCAAUAUUACGGGGG | -4.09 ± 0.24 | -3.23 ± 0.26
ACCGAGCAAUAUUACGUUUG | -2.86 ± 0.13 | -2.19 ± 0.14
AUUCAGCAAUAUUACGGAAA | -1.03 ± 0.12 | -0.365 ± 0.12
UCCAAGCAAUAUUACGGGAU | -3.88 ± 0.22 | -2.52 ± 0.16
GCAAAGCAAUAUUACGCCUG | -2.21 ± 0.1 | -1.12 ± 0.12
GAUUAGCAAUAUUACGACAA | -0.938 ± 0.17 | -0.154 ± 0.14
GCGAAGCAAUAUUACGUCUG | -1.68 ± 0.088 | -1.81 ± 0.15
GGAAAGCAAUAUUACGGCAG | -1.79 ± 0.21 | -3.11 ± 0.43
ACAUAGCAAUAUUACGAAGU | -2.67 ± 0.21 | -2.85 ± 0.23
UCUAAGCAAUAUUACGACUA | -3.07 ± 0.25 | -0.59 ± 0.15
GUUAAGCAAUAUUACGGUCA | -0.91 ± 0.098 | -0.943 ± 0.092
GAAUAGCAAUAUUACGUGCC | -0.897 ± 0.12 | -0.104 ± 0.15
GGACAGCAAUAUUACGCAGA | -0.851 ± 0.16 | -0.643 ± 0.15
UUUUAGCAAUAUUACGUCCA | -1.59 ± 0.22 | -0.545 ± 0.19
CAUGAGCAAUAUUACGGCAC |  | -1.42 ± 0.3
AUCGAGCAAUAUUACGGCGG | -2.61 ± 0.14 | -1.36 ± 0.14
CAAUAGCAAUAUUACGGCUG | -0.286 ± 0.084 | -0.379 ± 0.098
CCAUAGCAAUAUUACGGGAU | -3.65 ± 0.23 | -2.86 ± 0.24

Sequence | self-splicing fitness (ln) (30 °C) | self-splicing fitness (ln) (37 °C)
UGAUAGCAAUAUUACGAGGU | -3.79 ± 0.24 | -3.13 ± 0.25
CACCAGCAAUAUUACGCGCA | -2.03 ± 0.084 | -1.51 ± 0.085
GGAGAGCAAUAUUACGUAGA | -4.01 ± 0.2 | -2.05 ± 0.15
GCCCAGCAAUAUUACGCUCG | -3.45 ± 0.24 | -2.34 ± 0.27
ACUGAGCAAUAUUACGUCCA | -3.1 ± 0.36 | -2 ± 0.4
ACCCAGCAAUAUUACGAUCC | -1.96 ± 0.079 | -1.17 ± 0.12
UCAAAGCAAUAUUACGAACG | -0.696 ± 0.076 | -0.646 ± 0.11
CUUGAGCAAUAUUACGAAUC | -4.03 ± 0.31 | -1.86 ± 0.26
GGACAGCAAUAUUACGGUAU | -0.41 ± 0.066 | -0.343 ± 0.09
CAUUAGCAAUAUUACGGCAG | -0.186 ± 0.078 | -0.0776 ± 0.11
GUCUAGCAAUAUUACGGGGA | -2.08 ± 0.25 | -3.16 ± 0.32
AGUAAGCAAUAUUACGCGUA | -1.73 ± 0.15 | -0.118 ± 0.16
GUCAAGCAAUAUUACGUUAC | -3.02 ± 0.17 | -2.96 ± 0.17
ACAAAGCAAUAUUACGGCAU | -0.565 ± 0.046 | 0.328 ± 0.058
UCGUAGCAAUAUUACGGAUU | -2.08 ± 0.14 | -2.85 ± 0.23
UGCGAGCAAUAUUACGCCUC | -2.78 ± 0.43 | 
CCAGAGCAAUAUUACGGUGA | -3.55 ± 0.2 | -2.6 ± 0.23
CCCAAGCAAUAUUACGUCAG | -4.12 ± 0.17 | -1.97 ± 0.13
GCGUAGCAAUAUUACGCACU | -3.02 ± 0.24 | 0.255 ± 0.2
AAGCAGCAAUAUUACGCGAG | -0.949 ± 0.095 | -0.986 ± 0.11
UCGCAGCAAUAUUACGCAGC |  | -2.1 ± 0.45
CUGCAGCAAUAUUACGGGGA | -2.72 ± 0.19 | -2.22 ± 0.18
GUGAAGCAAUAUUACGUUUA | -1.01 ± 0.064 | -0.109 ± 0.11
GCAUAGCAAUAUUACGCAUC | -3.1 ± 0.23 | -3.22 ± 0.27
